Data on three substances can be found in paper doi:10.1101/2021.02.05.429900.

Assay in all cases: FRET or BRET
(In general: BRET reads energy transfer from a luciferase to a nearby fluorophore.)

Assay [1] has as its target cpVenus-tagged Gβγ of the G15 BRET sensor (UniProt P62873).
The target of assay [2] is Gβ3 with cpVenus-Gγ9 (Gβγ of the G13 BRET sensor) (UniProt P16520).
The target of assay [3] is cpVenus-tagged Gβγ of the Gs BRET sensor (UniProt P62873).

Sequence of UniProt P16520 (P16520 whole entry, chain 1 of 2): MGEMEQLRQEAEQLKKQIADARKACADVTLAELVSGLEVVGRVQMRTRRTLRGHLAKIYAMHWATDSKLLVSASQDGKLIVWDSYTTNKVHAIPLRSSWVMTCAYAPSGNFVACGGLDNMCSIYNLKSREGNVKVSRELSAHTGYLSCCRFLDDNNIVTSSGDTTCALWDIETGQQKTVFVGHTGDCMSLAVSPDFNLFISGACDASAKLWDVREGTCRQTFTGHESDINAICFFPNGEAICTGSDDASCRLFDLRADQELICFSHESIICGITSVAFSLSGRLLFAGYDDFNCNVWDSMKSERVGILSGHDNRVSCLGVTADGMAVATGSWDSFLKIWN
Sequence of UniProt P16520 (O14610 whole entry, chain 2 of 2, further chain): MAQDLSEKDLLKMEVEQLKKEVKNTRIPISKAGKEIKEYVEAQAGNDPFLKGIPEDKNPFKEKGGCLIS

Regarding “Nluc-tagged Gα15 (G15 BRET sensor) (from UniProt P30679 1-374) (natural protein)”, in assay [1], the amplitude of the BRET response (ΔBRET) on agonist activation of TBXA2R is -10%.
Regarding “Gα13-Nluc (G13 BRET sensor) (from UniProt Q14344 1-377) (natural protein)”, the amplitude of the BRET response (ΔBRET) on agonist activation of TBXA2R in assay [2] was -35%.
In the case of “Nluc-tagged Gαs (Gs BRET sensor) (from UniProt P63092 1-394) (natural protein)”, the amplitude of the BRET response (ΔBRET) on agonist activation of β2AR in assay [3] is -10%.
